Assays:
Assay in all cases: cell-based or functional assay
[1] = biological target: human TSHR expressed in CHO cells (human) (UniProt P16473)
[2] = biological target: human TSH receptor (TSHR), wild type, expressed in CHO cells (human) (UniProt P16473)
[3] = biological target: human TSH receptor (full length, wild type) expressed in CHO cells (human) (UniProt P16473)
[4] = biological target: human TSHR (wild type, full length) expressed in CHO cells (human) (UniProt P16473)
[5] = biological target: human TSH receptor (wild type), expressed on transfected CHO cells (human) (UniProt P16473)

- % Inhibition; 3 ng/mL pTSH + 0.001 µg/mL 9D33 IgG [1]: 13%
- % Inhibition; 3 ng/mL pTSH + 0.01 µg/mL 9D33 IgG [1]: 5%
- % Inhibition; 3 ng/mL pTSH + 0.1 µg/mL 9D33 IgG [1]: 28%
- % Inhibition; 3 ng/mL pTSH + 1 µg/mL 9D33 IgG [1]: 67%
- % Inhibition; 3 ng/mL pTSH + 10 µg/mL 9D33 IgG [1]: 87%
- % Inhibition; 3 ng/mL pTSH + 100 µg/mL 9D33 IgG [1]: 95%
- % Inhibition of constitutive activity; 0.001 µg/mL 9D33 IgG [2]: 0%
- % Inhibition of constitutive activity; 0.01 µg/mL 9D33 IgG [2]: 0%
- % Inhibition of constitutive activity; 0.1 µg/mL 9D33 IgG [2]: 0%
- % Inhibition of constitutive activity; 0.3 µg/mL 9D33 IgG [2]: 0%
- % Inhibition of constitutive activity; 1 µg/mL 9D33 IgG [2]: 0%
- % Inhibition of constitutive activity; 3 µg/mL 9D33 IgG [2]: 0%
- % Inhibition of constitutive activity; 10 µg/mL 9D33 IgG [2]: 0%
- % Inhibition of constitutive activity; 100 µg/mL 9D33 IgG [2]: 0%
- Cyclic AMP concentration (constitutive activity); 0.001 µg/mL 9D33 IgG [2]: 18.8 pmol/mL
- Cyclic AMP concentration (constitutive activity); 0.01 µg/mL 9D33 IgG [2]: 20.3 pmol/mL
- Cyclic AMP concentration (constitutive activity); 0.1 µg/mL 9D33 IgG [2]: 23.9 pmol/mL
- Cyclic AMP concentration (constitutive activity); 0.3 µg/mL 9D33 IgG [2]: 26.4 pmol/mL
- Cyclic AMP concentration (constitutive activity); 1 µg/mL 9D33 IgG [2]: 35.5 pmol/mL
- Cyclic AMP concentration (constitutive activity); 3 µg/mL 9D33 IgG [2]: 32.3 pmol/mL
- Cyclic AMP concentration (constitutive activity); 10 µg/mL 9D33 IgG [2]: 34.3 pmol/mL
- Cyclic AMP concentration (constitutive activity); 100 µg/mL 9D33 IgG [2]: 38 pmol/mL
- % Inhibition; T1 serum + 100 µg/mL 9D33 IgG [3]: 95.4%
- % Inhibition; T2 serum + 100 µg/mL 9D33 IgG [3]: 96.8%
- % Inhibition; T3 serum + 100 µg/mL 9D33 IgG [3]: 94.2%
- Cyclic AMP concentration; 100 µg/mL 9D33 IgG alone [3]: 2.1 pmol/mL
- Cyclic AMP concentration; HBD + 100 µg/mL 9D33 IgG [3]: 1.9 pmol/mL
- Cyclic AMP concentration; T1 serum + 100 µg/mL 9D33 IgG [3]: 4.6 pmol/mL
- Cyclic AMP concentration; T2 serum + 100 µg/mL 9D33 IgG [3]: 2 pmol/mL
- Cyclic AMP concentration; T3 serum + 100 µg/mL 9D33 IgG [3]: 3.7 pmol/mL
- % Inhibition of T5 serum stimulation; 0.01 µg/mL 9D33 IgG [4]: 23%
- % Inhibition of T5 serum stimulation; 0.1 µg/mL 9D33 IgG [4]: 55.7%
- % Inhibition of T5 serum stimulation; 1 µg/mL 9D33 IgG [4]: 93.6%
- % Inhibition of T5 serum stimulation; 10 µg/mL 9D33 IgG [4]: 96.4%
- % Inhibition of T5 serum stimulation; 100 µg/mL 9D33 IgG [4]: 95.3%
- Cyclic AMP concentration; 0.01 µg/mL 9D33 IgG + T5 [4]: 49.2 pmol/mL
- Cyclic AMP concentration; 0.1 µg/mL 9D33 IgG + T5 [4]: 28.3 pmol/mL
- Cyclic AMP concentration; 1 µg/mL 9D33 IgG + T5 [4]: 4.1 pmol/mL
- Cyclic AMP concentration; 10 µg/mL 9D33 IgG + T5 [4]: 2.3 pmol/mL
- Cyclic AMP concentration; 100 µg/mL 9D33 IgG + T5 [4]: 3 pmol/mL
- Cyclic AMP concentration; 100 µg/mL 9D33 IgG alone [4]: 2.4 pmol/mL
- % Inhibition; 9D33 IgG 0.01 µg/mL + T11 [5]: 17.1%
- % Inhibition; 9D33 IgG 0.1 µg/mL + T11 [5]: 50.4%
- % Inhibition; 9D33 IgG 1 µg/mL + T11 [5]: 87.7%
- % Inhibition; 9D33 IgG 10 µg/mL + T11 [5]: 90.1%
- % Inhibition; 9D33 IgG 100 µg/mL + T11 [5]: 94.8%
- Cyclic AMP concentration; 9D33 IgG 0.01 µg/mL + T11 [5]: 20.9 pmol/mL
- Cyclic AMP concentration; 9D33 IgG 0.1 µg/mL + T11 [5]: 12.5 pmol/mL
- Cyclic AMP concentration; 9D33 IgG 1 µg/mL + T11 [5]: 3.1 pmol/mL
- Cyclic AMP concentration; 9D33 IgG 10 µg/mL + T11 [5]: 2.5 pmol/mL
- Cyclic AMP concentration; 9D33 IgG 100 µg/mL + T11 [5]: 2.1 pmol/mL
- Cyclic AMP concentration; 9D33 IgG 100 µg/mL alone [5]: 1.3 pmol/mL
Substance: 9D33 IgG (antibody)

From patent US20110300138A1 (published 2011)
